Test results: the Human Domainome abundance scans (Beltran et al. 2025)
± gives the uncertainty stated by the source.

B1: Peroxisome proliferator-activated receptor delta, residues 71 to 145; numbered along this chain, Q03181 (parent)
chain: NMECRVCGDKASGFHYGVHACEGCKGFFRRTIRMKLEYEKCERSCKIQKKNRNKCQYCRFQKCLALGMSHNAIRF

Variants of: B1
Assay: abundance fitness (aPCA) (normalised: wild type 0, dead -1); higher = more abundant; growth selection in yeast, the domain comes from the species named
Settings: Homo sapiens

In order of falling abundance fitness:
1. R29E  0.258 ± 0.043
2. H19F  0.247 ± 0.095
3. R74G  0.224 ± 0.038
4. R43N  0.223 ± 0.069
5. H70I  0.198 ± 0.09
6. R29T  0.197 ± 0.044
7. R29L  0.139 ± 0.035
8. A72D  0.132 ± 0.048
9. H19Q  0.131 ± 0.047
10. K50E  0.111 ± 0.045
11. K46Q  0.106 ± 0.047
12. R29G  0.09 ± 0.03
13. R33L  0.089 ± 0.044
14. G26Y  0.084 ± 0.06
15. K10Q  0.08 ± 0.045
16. Q56E  0.077 ± 0.042
17. G26A  0.068 ± 0.04
18. R74K  0.067 ± 0.075
19. K49V  0.066 ± 0.12
20. K25I  0.061 ± 0.063
21. S44Y  0.061 ± 0.058
22. N51E  0.055 ± 0.039
23. M34H  0.047 ± 0.075
24. N71Q  0.034 ± 0.051
25. G26I  0.025 ± 0.099
26. S69E  0.022 ± 0.043
27. E37C  0.011 ± 0.062
28. G23M  0.009 ± 0.056
29. A72Q  0.008 ± 0.058
30. K10E  0.007 ± 0.039
31. R5L  0.003 ± 0.037
32. Q56G  0.002 ± 0.031
33. R59H  -0.005 ± 0.078
34. S44F  -0.005 ± 0.074
35. H15F  -0.006 ± 0.069
36. R74V  -0.013 ± 0.061
37. Q56P  -0.025 ± 0.046
38. N51M  -0.026 ± 0.072
39. F14A  -0.028 ± 0.039
40. M34G  -0.033 ± 0.039
41. K25Q  -0.036 ± 0.049
42. E37K  -0.038 ± 0.051
43. N71G  -0.038 ± 0.035
44. L36M  -0.05 ± 0.058
45. I73K  -0.05 ± 0.062
46. K46Y  -0.051 ± 0.07
47. V18I  -0.051 ± 0.074
48. K62A  -0.056 ± 0.046
49. S69V  -0.057 ± 0.043
50. E39V  -0.061 ± 0.034
51. R74Y  -0.081 ± 0.14
52. R5Y  -0.085 ± 0.088
53. I32L  -0.095 ± 0.043
54. Q61K  -0.098 ± 0.056
55. K40E  -0.113 ± 0.046
56. S69N  -0.118 ± 0.08
57. Y57W  -0.125 ± 0.054
58. R5C  -0.13 ± 0.063
59. S69C  -0.138 ± 0.063
60. S12Y  -0.138 ± 0.072
61. R43C  -0.138 ± 0.076
62. N1V  -0.141 ± 0.057
63. I32M  -0.142 ± 0.061
64. R43D  -0.149 ± 0.075
65. A11I  -0.154 ± 0.083
66. A65I  -0.162 ± 0.11
67. L64Q  -0.162 ± 0.056
68. E37M  -0.164 ± 0.053
69. S44C  -0.164 ± 0.062
70. H19G  -0.205 ± 0.041
71. N51K  -0.212 ± 0.065
72. I32A  -0.221 ± 0.054
73. A20N  -0.222 ± 0.17
74. K40N  -0.225 ± 0.093
75. A11F  -0.228 ± 0.085
76. G23I  -0.244 ± 0.098
77. S12K  -0.248 ± 0.06
78. A72R  -0.257 ± 0.043
79. N1Y  -0.266 ± 0.15
80. Y16L  -0.269 ± 0.045
81. Y16V  -0.281 ± 0.049
82. R52W  -0.286 ± 0.056
83. K62Q  -0.293 ± 0.077
84. A11V  -0.306 ± 0.05
85. R52H  -0.307 ± 0.11
86. N71V  -0.31 ± 0.046
87. M2L  -0.315 ± 0.059
88. G23V  -0.325 ± 0.052
89. E37Y  -0.326 ± 0.12
90. R5F  -0.326 ± 0.091
91. R30G  -0.335 ± 0.043
92. K35F  -0.339 ± 0.1
93. S12R  -0.351 ± 0.046
94. G8S  -0.362 ± 0.045
95. E42R  -0.367 ± 0.038
96. L64A  -0.38 ± 0.059
97. S12P  -0.39 ± 0.07
98. V18Q  -0.39 ± 0.082
99. V18E  -0.398 ± 0.063
100. I32H  -0.405 ± 0.12
101. L66F  -0.438 ± 0.11
102. K62E  -0.447 ± 0.078
103. I47K  -0.453 ± 0.061
104. I32S  -0.464 ± 0.067
105. K40G  -0.472 ± 0.045
106. R59V  -0.472 ± 0.058
107. G13L  -0.48 ± 0.055
108. K35L  -0.495 ± 0.061
109. G67M  -0.497 ± 0.097
110. I32D  -0.5 ± 0.12
111. E39W  -0.518 ± 0.064
112. K62H  -0.522 ± 0.14
113. G13H  -0.545 ± 0.12
114. D9K  -0.548 ± 0.12
115. C4H  -0.576 ± 0.17
116. C63A  -0.585 ± 0.077
117. A20H  -0.594 ± 0.22
118. Y57E  -0.601 ± 0.084
119. Y38T  -0.607 ± 0.099
120. C21I  -0.608 ± 0.17
121. D9W  -0.618 ± 0.097
122. F28S  -0.625 ± 0.083
123. C58M  -0.63 ± 0.11
124. C41V  -0.645 ± 0.13
125. V18Y  -0.652 ± 0.14
126. T31D  -0.663 ± 0.16
127. C4S  -0.669 ± 0.082
128. C63I  -0.669 ± 0.17
129. G8I  -0.687 ± 0.34
130. G67T  -0.687 ± 0.12
131. C63E  -0.689 ± 0.13
132. G67S  -0.694 ± 0.077
133. Q61W  -0.699 ± 0.094
134. C21A  -0.705 ± 0.099
135. T31G  -0.717 ± 0.085
136. C58W  -0.723 ± 0.089
137. C4Q  -0.738 ± 0.12
138. Y38V  -0.74 ± 0.091
139. C24Y  -0.747 ± 0.22
140. Y38P  -0.758 ± 0.1
141. M68H  -0.771 ± 0.25
142. A20K  -0.771 ± 0.24
143. C41W  -0.774 ± 0.22
144. G8M  -0.782 ± 0.12
145. C7R  -0.793 ± 0.077
146. M68E  -0.794 ± 0.12
147. G67L  -0.808 ± 0.091
148. M68N  -0.81 ± 0.37
149. L64D  -0.83 ± 0.18
150. C45I  -0.842 ± 0.23
151. F27E  -0.85 ± 0.13
152. C7T  -0.862 ± 0.13
153. R59G  -0.867 ± 0.076
154. Y38S  -0.868 ± 0.1
155. C55R  -0.868 ± 0.076
156. C7W  -0.895 ± 0.15
157. R29P  -0.901 ± 0.13
158. F27A  -0.934 ± 0.12
159. F27Q  -0.958 ± 0.21
160. V6Q  -0.968 ± 0.2
161. C55V  -1.03 ± 0.13
162. R30P  -1.05 ± 0.17
163. C4P  -1.07 ± 0.18
164. C58N  -1.09 ± 0.34
165. C21P  -1.14 ± 0.26
166. F28I  -1.23 ± 0.49
167. C55D  -1.39 ± 0.49
